The source of these data is patent US20140107021A1 (priority 2010, published 2014).

Data set [1] deals with T1, glucagon receptor (Homo sapiens, UniProt P47871). Put plainly: glucagon receptor binding. Details: expressed in transfected cells; host or cells: HEK293.
Data set [2] has as its target T1, glucagon receptor. Description: cAMP induction at the glucagon receptor (agonist activity), luciferase reporter assay in HEK293 cells. The format is cell-based. Details: expressed in transfected cells; host or cells: HEK293. The conditions noted are these: for EC50 / GR relative activity: Table 5; for EC50: read-out: GR EC50; for GR relative activity: relative to standard. From the text:
(§1) HEK293 cells co-transfected with the receptor and luciferase gene linked to a cAMP responsive element were employed for the bioassay.
(§2) All EC50s and IC50s are reported in the following examples in nM, unless indicated otherwise.

Another data set has as its target T2, GIP receptor (Homo sapiens, UniProt P48546).
T2 construct: expressed in transfected cells; host or cells: HEK293
T2 sequence (P48546 22-466): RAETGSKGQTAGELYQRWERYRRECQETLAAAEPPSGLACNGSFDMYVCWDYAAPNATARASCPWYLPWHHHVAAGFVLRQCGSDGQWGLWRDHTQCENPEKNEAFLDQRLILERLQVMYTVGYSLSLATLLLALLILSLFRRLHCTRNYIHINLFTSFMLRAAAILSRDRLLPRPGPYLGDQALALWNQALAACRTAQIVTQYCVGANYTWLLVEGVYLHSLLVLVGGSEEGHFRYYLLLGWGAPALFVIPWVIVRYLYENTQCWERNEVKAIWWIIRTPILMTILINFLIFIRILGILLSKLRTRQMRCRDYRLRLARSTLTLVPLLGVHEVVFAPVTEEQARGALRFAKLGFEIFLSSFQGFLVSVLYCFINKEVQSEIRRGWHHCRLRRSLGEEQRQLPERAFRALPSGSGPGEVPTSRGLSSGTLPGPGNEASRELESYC
Put plainly: cAMP induction at the GIP receptor (agonist activity), luciferase reporter assay in HEK293 cells. The data set is classed as cell-based. The conditions noted are these: for GIPR relative activity: Table 5, relative to standard.
Source text: as §1, §2

In another data set the target is T3, GLP-1 receptor (Homo sapiens, UniProt P43220).
T3 construct: expressed in transfected cells; host or cells: HEK293
T3 sequence (P43220 24-463): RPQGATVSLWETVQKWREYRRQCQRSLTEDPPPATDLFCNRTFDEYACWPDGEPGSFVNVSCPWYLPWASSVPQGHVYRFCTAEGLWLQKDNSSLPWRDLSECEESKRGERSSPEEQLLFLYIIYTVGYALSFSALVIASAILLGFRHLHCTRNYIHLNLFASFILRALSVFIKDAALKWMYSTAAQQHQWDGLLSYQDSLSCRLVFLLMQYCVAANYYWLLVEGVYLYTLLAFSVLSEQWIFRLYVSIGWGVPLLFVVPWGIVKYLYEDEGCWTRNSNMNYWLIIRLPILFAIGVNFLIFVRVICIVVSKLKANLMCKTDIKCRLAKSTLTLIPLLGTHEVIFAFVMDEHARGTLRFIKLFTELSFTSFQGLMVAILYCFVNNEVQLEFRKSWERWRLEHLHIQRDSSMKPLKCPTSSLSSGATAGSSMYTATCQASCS
Description: cAMP induction at the GLP-1 receptor (agonist activity), firefly luciferase reporter assay in HEK293 cells. The conditions noted are these: for GLP-1R relative activity: Table 5, relative to standard. The data set is classed as cell-based.
Source text: as §1, §2

Like-named read-outs stand apart in the source and are kept apart here. Bridge positions count the residues as written; N and C are the ends. Square brackets hold non-standard residues; d marks the D form. Side chains are listed from the residue outwards. Ends that are not written are not given here. Peptide text beside a SMILES is read from it. PEG40kDa = 40 kDa polyethylene glycol; Ac‑Cys = acetylated cysteine; Aib = CC(C)(N)C(=O)O

T1 sequence (P47871 26-477): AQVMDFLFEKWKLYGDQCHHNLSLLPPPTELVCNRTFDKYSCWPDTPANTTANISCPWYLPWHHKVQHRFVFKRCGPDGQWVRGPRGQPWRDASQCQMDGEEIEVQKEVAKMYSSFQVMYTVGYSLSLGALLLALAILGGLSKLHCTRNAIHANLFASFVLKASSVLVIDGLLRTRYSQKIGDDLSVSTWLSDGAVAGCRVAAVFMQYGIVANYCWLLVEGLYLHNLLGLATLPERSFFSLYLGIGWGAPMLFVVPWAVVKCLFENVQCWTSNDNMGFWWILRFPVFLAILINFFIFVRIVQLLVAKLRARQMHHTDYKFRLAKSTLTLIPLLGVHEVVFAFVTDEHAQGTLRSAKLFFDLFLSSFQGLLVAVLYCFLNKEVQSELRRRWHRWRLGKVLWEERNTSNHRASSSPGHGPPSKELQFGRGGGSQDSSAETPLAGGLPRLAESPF

`CC(C)C[C@H](NC(=O)[C@H](Cc1ccc(O)cc1)NC(=O)[C@H](CCCCN)NC(=O)[C@H](CO)NC(=O)[C@H](Cc1ccc(O)cc1)NC(=O)[C@H](CCS(=O)(=O)O)NC(=O)[C@H](CO)NC(=O)[C@@H](NC(=O)[C@H](Cc1ccccc1)NC(=O)[C@@H](NC(=O)CNC(=O)[C@H](CCC(N)=O)NC(=O)[C@@H](N)CO)[C@@H](C)O)[C@@H](C)O)C(=O)N[C@@H](CC(=O)O)C(=O)N[C@@H](CO)C(=O)N[C@@H](CCCNC(=N)N)C(=O)N[C@@H](CCCNC(=N)N)C(=O)N[C@@H](C)C(=O)N[C@@H](CCC(N)=O)C(=O)N[C@@H](CC(=O)O)C(=O)N[C@@H](Cc1ccccc1)C(=O)N[C@H](C(=O)N[C@@H](CCC(N)=O)C(=O)N[C@@H](Cc1ccccc1)C(=O)N[C@@H](CC(C)C)C(=O)N[C@@H](CC(C)C)C(=O)N[C@@H](CC(N)=O)C(=O)N[C@H](C(N)=O)[C@@H](C)O)C(C)C` [[desIIis^1, hCys^9(SO3—), Phe^25, Leu^27]Glucagon-NH2] (HELM PEPTIDE1{S.Q.G.T.F.T.S.[O=C([C@H](CCS(=O)(=O)O)N[*:1])[*:2]].Y.S.K.Y.L.D.S.R.R.A.Q.D.F.V.Q.F.L.L.N.T.[am]}$$$$V2.0; N-terminus assumed): at glucagon receptor [1] (Table E, read-out: Receptor Binding IC50), the IC50 came to 13.9 ± 0.37 nM.
In the case of `CSCC[C@H](NC(=O)[C@H](CC(C)C)NC(=O)[C@H](Cc1c[nH]c2ccccc12)NC(=O)[C@H](CCC(N)=O)NC(=O)[C@@H](NC(=O)[C@H](Cc1ccccc1)NC(=O)[C@H](CC(=O)O)NC(=O)[C@H](CCC(N)=O)NC(=O)[C@H](C)NC(=O)[C@H](CCCNC(=N)N)NC(=O)[C@H](CCCNC(=N)N)NC(=O)[C@H](CO)NC(=O)[C@H](CC(=O)O)NC(=O)[C@H](CC(C)C)NC(=O)[C@H](Cc1ccc(O)cc1)NC(=O)[C@H](CCCCN)NC(=O)[C@H](CO)NC(=O)[C@H](Cc1ccc(O)cc1)NC(=O)[C@H](CCS(=O)(=O)O)NC(=O)[C@H](CO)NC(=O)[C@@H](NC(=O)[C@H](Cc1ccccc1)NC(=O)[C@@H](NC(=O)CNC(=O)[C@H](CCC(N)=O)NC(=O)[C@@H](N)CO)[C@@H](C)O)[C@@H](C)O)C(C)C)C(=O)N[C@@H](CC(N)=O)C(=O)N[C@H](C(N)=O)[C@@H](C)O` [[hCys^9(SO3H)]Glucagon(aa2-29)-NH2], the IC50 at glucagon receptor [1] (Table H, same values as receptor binding in Table I, read-out: IC50) was found to be 13.2 ± 1 nM.
As for “Y1Aib2I7I12K16Q17A18Aib20E21N24-LAG27-29-CEX-K (YXQGTFISDYSIYLDKQAAXEFVNWLLAGGPSSGAPPPSK; HELM PEPTIDE1{Y.[Aib].Q.G.T.F.I.S.D.Y.S.I.Y.L.D.K.Q.A.A.[Aib].E.F.V.N.W.L.L.A.G.G.P.S.S.G.A.P.P.P.S.K.[am]}$$$$V2.0; N-terminus assumed; SMILES CC[C@H](C)[C@H](NC(=O)[C@H](CO)NC(=O)[C@H](Cc1ccc(O)cc1)NC(=O)[C@H](CC(=O)O)NC(=O)[C@H](CO)NC(=O)[C@@H](NC(=O)[C@H](Cc1ccccc1)NC(=O)[C@@H](NC(=O)CNC(=O)[C@H](CCC(N)=O)NC(=O)C(C)(C)NC(=O)[C@@H](N)Cc1ccc(O)cc1)[C@@H](C)O)[C@@H](C)CC)C(=O)N[C@@H](Cc1ccc(O)cc1)C(=O)N[C@@H](CC(C)C)C(=O)N[C@@H](CC(=O)O)C(=O)N[C@@H](CCCCN)C(=O)N[C@@H](CCC(N)=O)C(=O)N[C@@H](C)C(=O)N[C@@H](C)C(=O)NC(C)(C)C(=O)N[C@@H](CCC(=O)O)C(=O)N[C@@H](Cc1ccccc1)C(=O)N[C@H](C(=O)N[C@@H](CC(N)=O)C(=O)N[C@@H](Cc1c[nH]c2ccccc12)C(=O)N[C@@H](CC(C)C)C(=O)N[C@@H](CC(C)C)C(=O)N[C@@H](C)C(=O)NCC(=O)NCC(=O)N1CCC[C@H]1C(=O)N[C@@H](CO)C(=O)N[C@@H](CO)C(=O)NCC(=O)N[C@@H](C)C(=O)N1CCC[C@H]1C(=O)N1CCC[C@H]1C(=O)N1CCC[C@H]1C(=O)N[C@@H](CO)C(=O)N[C@@H](CCCCN)C(N)=O)C(C)C) [MT-357]”, the “% Relative Activity at GR” value with glucagon receptor [2] (Table 8) came to 170%. Further, the “% Relative Activity at GIPR” value in the data set with GIP receptor (Table 8) is listed as 198%. Besides, the “% Relative Activity GLP-1R” value with GLP-1 receptor (Table 8) is listed as 0.81%.
For “mt-217: lactam 16-20 glucagon analog, Lys24 carrying Ala spacer, acetylated Cys and 40 kDa PEG; SEQ ID NO: 19 (Y[Aib]QGTFTSDYSIYLDEQAAKEFVK([Ala-Ac‑Cys-PEG40kDa])FLLAGGPSSGAPPPS-NH2; lactam 16-20)”, in the data set with glucagon receptor [2], the EC50 stood at 13.9 nM and the GR relative activity is on record as 0.82%. Further, the GIPR relative activity in the data set with GIP receptor was found to be 0.20%. The molecule also yielded a GLP-1R relative activity with GLP-1 receptor of 11.26%.
As to “mt-218: as mt-217 with Glu as the amino acid spacer; SEQ ID NO: 20 (Y[Aib]QGTFTSDYSIYLDEQAAKEFVK([Glu-Ac‑Cys-PEG40kDa])FLLAGGPSSGAPPPS-NH2; lactam 16-20)”, in the data set with glucagon receptor [2], the EC50 came out at 16.3 nM and the GR relative activity came out at 0.70%. In the data set with GIP receptor, this molecule had a GIPR relative activity of 0.13%. This molecule also displayed a GLP-1R relative activity with GLP-1 receptor of 7.40%.
For “mt-219: as mt-217 with Arg as the amino acid spacer; SEQ ID NO: 21 (Y[Aib]QGTFTSDYSIYLDEQAAKEFVK([Arg-Ac‑Cys-PEG40kDa])FLLAGGPSSGAPPPS-NH2; lactam 16-20)”, in the data set with glucagon receptor [2], the EC50 was 17.6 nM and the GR relative activity turned out to be 0.65%. Also, in the data set with GIP receptor, the GIPR relative activity entry is “.31%”. The GLP-1R relative activity with GLP-1 receptor is given as 16.56%.
On the same counts, the results for “mt-220: as mt-217 with Phe as the amino acid spacer; SEQ ID NO: 22 (Y[Aib]QGTFTSDYSIYLDEQAAKEFVK([Phe-Ac‑Cys-PEG40kDa])FLLAGGPSSGAPPPS-NH2; lactam 16-20)” are 9.67 nM, 1.18%, 0.19% and 13.89%.
Consider “mt-225: as mt-217 but modified Lys at position 40 and Asn at position 24; SEQ ID NO: 359 (Y[Aib]QGTFTSDYSIYLDEQAAKEFVNWLLAGGPSSGAPPPSK([Ala-Ac‑Cys-PEG40kDa])-NH2; lactam 16-20)”, for which, in the data set with glucagon receptor [2], the concentration giving a half-maximal response (EC50) was determined as 2.71 nM and the GR relative activity was determined as 1.99%. The molecule further displayed a GIPR relative activity with GIP receptor of 0.90%. For the same molecule, the GLP-1R relative activity in the data set with GLP-1 receptor is recorded as 29.59%.
Take “mt-226: as mt-218 but modified Lys at position 40 and Asn at position 24; SEQ ID NO: 23 (Y[Aib]QGTFTSDYSIYLDEQAAKEFVNWLLAGGPSSGAPPPSK([Glu-Ac‑Cys-PEG40kDa])-NH2; lactam 16-20)”: in the data set with glucagon receptor [2], the EC50 was determined as 3.46 nM and the GR relative activity is on record as 1.56%. In addition, the GIPR relative activity with GIP receptor stood at 1.16%. In the data set with GLP-1 receptor, this molecule came in with a GLP-1R relative activity of 29.90%.
As to “mt-227: as mt-219 but modified Lys at position 40 and Asn at position 24; SEQ ID NO: 360 (Y[Aib]QGTFTSDYSIYLDEQAAKEFVNWLLAGGPSSGAPPPSK([Arg-Ac‑Cys-PEG40kDa])-NH2; lactam 16-20)”, in the data set with glucagon receptor [2], the EC50 turned out to be 4.24 nM and the GR relative activity was 1.27%. Moreover, the GIPR relative activity with GIP receptor is recorded as 1.29%. In the data set with GLP-1 receptor, this molecule came in with a GLP-1R relative activity of 36.25%.
Take “mt-228: as mt-220 but modified Lys at position 40 and Asn at position 24; SEQ ID NO: 24 (Y[Aib]QGTFTSDYSIYLDEQAAKEFVNWLLAGGPSSGAPPPSK([Phe-Ac‑Cys-PEG40kDa])-NH2; lactam 16-20)”: in the data set with glucagon receptor [2], the EC50 amounted to 5.36 nM and the GR relative activity came out at 1.01%. The molecule further yielded a GIPR relative activity with GIP receptor of 0.75%. Also, the GLP-1R relative activity with GLP-1 receptor amounted to 19.86%.
